{
  "source": "patent US7550150B2",
  "about": "“Methods of treating or preventing a disease, disorder or condition associated with a viral infection” (Barros Research Institute, priority 2005, dated 2009)",
  "key": {"influenza virus": {"tested_on": "influenza virus", "settings": "orally; cited from earlier work"}, "[1]": {"tested_on": "Punta Toro virus, Adames strain", "design": "species or system C57BL/6 mice", "settings": "mouse, in vivo"}, "[2]": {"settings": "toxicity controls; 75 mg/kg/day i.p. bid x5"}, "[3]": {"settings": "for tolerability in toxicity control animals: all surviving and losing no weight during therapy; for Tox Controls Surv/Total: uninfected, two treatments"}, "[4]": {"tested_on": "Banzi virus (H336 strain)", "assay": "Banzi virus infection in mice (Example 7)", "format": "in vivo, BALB/c mice", "settings": "for Infected, treated MDD ± SD: mice dying before day 21; for weight loss: placebo 9.6%; for Average brain titer: placebo 6.9"}, "[5]": {"assay": "Uninfected toxicity controls (Example 7)", "format": "in vivo, BALB/c mice", "description": "Experiment Design: Animals were injected i.p. with either 10^−3 dilution of Banzi virus stocks diluted in minimal essential media (MEM), or were sham-inoculated. This virus concentration had previously produced approximately 90% mortality in mice. Animals were treated with two doses of 10, 1, 0.1 μg/mouse of Barrogen or with drug vehicle (placebo group). The first dose was administered 4-6 h prior to virus inoculation. The second dose was given 48 h later. As a positive control a group of 15 infected mice were treated with a single dose of Ampligen® 24 h prior to virus inoculation at a dose of 1 mg/kg. Groups of 3 sham-inoculated animals used as toxicity controls were treated with identical compounds on identical schedules to the infected animals."}, "[6]": {"tested_on": "Punta Toro virus, Adames strain", "design": "species or system C57BL/6 mice", "settings": "mouse, in vivo", "remark": "listed apart in the source"}, "[7]": {"tested_on": "Banzi virus (H336 strain)", "format": "in vivo, Balb/c mice", "settings": "for Infected, treated % survival (alive/total): 21 days; for Infected, treated % Mean wt. change: day 0 vs day 10"}, "[8]": {"settings": "every dose used"}, "[9]": {"settings": "dosages used; no deaths or weight loss"}, "[10]": {"settings": "dosages used; no deaths or weight loss", "remark": "listed apart in the source"}, "[11]": {"settings": "0.1 μg/mouse/day i.p. 4-6 h pre-virus and 48 hr later"}, "[12]": {"settings": "1 μg/mouse/day i.p. 4-6 h pre-virus and 48 hr later"}, "[13]": {"settings": "10 μg/mouse/day i.p. 4-6 h pre-virus and 48 hr later"}, "[14]": {"settings": "0.1 μg/treatment i.p. −4 hpi and 2 dpi"}, "[15]": {"settings": "1 μg/treatment i.p. −4 hpi and 2 dpi"}},
  "note": "Several values for one entry are separate records, joined by “and”; a condition that tells them apart may be missing. Identical values can stand only once. Like-named read-outs stand apart in the source and are kept apart here. Marks after values point to notes of the source that are not given here.",
  "data": [
    {"molecule": "CCOC(=O)C1=C[C@@H](OC(CC)CC)[C@H](NC(C)=O)[C@@H](N)C1", "note": "[Oseltamivir]", "values": [
      {"measurement": "doses down to which highly active against influenza virus infections in mice", "setting": "influenza virus", "value": "~1", "unit": "mg/kg/day"}
    ]},
    {"molecule": "NC(=O)c1ncn([C@@H]2O[C@H](CO)[C@@H](O)[C@H]2O)n1", "note": "[Ribavirin, reference compound]", "values": [
      {"measurement": "Liver virus", "setting": "[1]", "value": "not detectable"},
      {"measurement": "weight loss during the treatment period", "setting": "[2]", "value": 0.8, "unit": "g"}
    ]},
    {"molecule": "GM-CSF: Granulocyte macrophage - colony stimulating factor", "values": [
      {"measurement": "tolerability in toxicity control animals", "setting": "[3]", "value": "well tolerated"},
      {"measurement": "Tox Controls Surv/Total", "setting": "[3]; 20 ng i.p.", "value": "3/3"},
      {"measurement": "Tox Controls Surv/Total", "setting": "[3]; 200 ng i.p.", "value": "3/3"}
    ]},
    {"molecule": "poly I · poly C12u [Ampligen, reference compound]", "values": [
      {"measurement": "Infected, treated Surv/Total", "setting": "[4]; 1 mg/kg i.p. single dose 24 h pre-virus exposure", "value": "10/10 (100%)***"},
      {"measurement": "survival", "setting": "[4]; 1 mg/kg single dose 24 h prior, p<0.001", "value": 100, "unit": "%"},
      {"measurement": "animals with virus detected in brain", "setting": "[4]; 1 mg/kg, 8 dpi", "value": "1 of the 5"},
      {"measurement": "brain virus titer", "setting": "[4]; 1 mg/kg, 8 dpi, placebo 6.9 log10 CCID50/g of tissue", "value": 5.6},
      {"measurement": "average weight gain", "setting": "[4]; 1 mg/kg, by 8 dpi", "value": 1.9, "unit": "%"},
      {"measurement": "Uninfected toxicity control Surv/Total", "setting": "[5]; 1 mg/kg i.p. single dose", "value": "3/3 (100%)"}
    ]},
    {"molecule": "rBBX-01: Recombinant Apicomplexa-related protein (ARP) having the sequence of SEQ ID NO:20; termed Barrogen, also called rBBX-01 or E1 (protein, listed as Eimeria tenella) GEEADTQAWDTSVREWLVDTGRVFAGGVASIADGCRLFGAAVEGEGNAWEELVKTNYQIEVPQEDGTSISVDCDEAETLRQAVVDGRAPNGVYIGGTKYKLAEVKRDFTFNDQNYDVAILGKNKGGGFLIKTPNENVVIALYDEEKEQNKADALTTALNFAEYLYQGGF", "values": [
      {"measurement": "mice protected (survival)", "setting": "[1]", "value": 100, "unit": "%"},
      {"measurement": "reduction of serum viral load", "setting": "[1]", "value": "more than 2 logs"},
      {"measurement": "serum ALT", "setting": "[1]", "value": "markedly reduced"},
      {"measurement": "Hepatic icterus reduced", "setting": "[6]", "value": "17-43%"},
      {"measurement": "mice protected / cured", "setting": "[6]", "value": 100, "unit": "%"},
      {"measurement": "serum ALT", "setting": "[6]", "value": "markedly reduced"},
      {"measurement": "serum virus titers", "setting": "[6]", "value": "significantly reduced"},
      {"measurement": "Mean Liver Score ± SD", "setting": "[6]; ip", "value": "2.6 ± 0.2 and 2.7 ± 0.3 and 2.0 ± 0.6 and 2.9 ± 0.5"},
      {"measurement": "Infected, treated Surv/Total", "setting": "[4]; [11]", "value": "5/10 (50%)*"},
      {"measurement": "Infected, treated MDD ± SD", "setting": "[4]; [11]", "value": "8.4 ± 5.5"},
      {"measurement": "virus in the brains", "setting": "[4]; 0.1 μg/mouse, 8 dpi", "value": "No virus was detected"},
      {"measurement": "weight loss", "setting": "[4]; 0.1 μg/mouse, 8 dpi", "value": 0.2, "unit": "%"},
      {"measurement": "survival", "setting": "[4]; 0.1 μg/mouse, placebo 10%, p<0.05", "value": 50, "unit": "%"},
      {"measurement": "Infected, treated Surv/Total", "setting": "[4]; [12]", "value": "7/10 (70%)***"},
      {"measurement": "Infected, treated MDD ± SD", "setting": "[4]; [12]", "value": "14.3 ± 1.5"},
      {"measurement": "animals with virus detected in brain", "setting": "[4]; 1 μg/mouse, 8 dpi", "value": "2 out of 5"},
      {"measurement": "Average brain titer", "setting": "[4]; 1 μg/mouse, 8 dpi", "value": 4.6, "unit": "log10 CCID50"},
      {"measurement": "weight loss", "setting": "[4]; 1 μg/mouse, 8 dpi", "value": 0.5, "unit": "%"},
      {"measurement": "survival", "setting": "[4]; 1 μg/mouse, placebo 10%, p<0.001", "value": 70, "unit": "%"},
      {"measurement": "Infected, treated Surv/Total", "setting": "[4]; [13]", "value": "4/10 (40%)"},
      {"measurement": "Infected, treated MDD ± SD", "setting": "[4]; [13]", "value": "14.2 ± 3.5"},
      {"measurement": "animals with virus detected in brain", "setting": "[4]; 10 μg/mouse, 8 dpi", "value": "2 out of 5"},
      {"measurement": "Average brain titer", "setting": "[4]; 10 μg/mouse, 8 dpi", "value": 2.8, "unit": "log10 CCID50"},
      {"measurement": "weight loss", "setting": "[4]; 10 μg/mouse, 8 dpi", "value": 1.3, "unit": "%"},
      {"measurement": "survival", "setting": "[4]; 10 μg/mouse, not significantly higher than placebo", "value": 40, "unit": "%"},
      {"measurement": "Uninfected toxicity control Surv/Total", "setting": "[5]; 0.1 μg/mouse/day i.p., two doses 48 h apart", "value": "3/3 (100%)"},
      {"measurement": "Uninfected toxicity control Surv/Total", "setting": "[5]; 1 μg/mouse/day i.p., two doses 48 h apart", "value": "3/3 (100%)"},
      {"measurement": "Uninfected toxicity control Surv/Total", "setting": "[5]; 10 μg/mouse/day i.p., two doses 48 h apart", "value": "3/3 (100%)"},
      {"measurement": "Infected, treated % survival (alive/total)", "setting": "[7]; [14]", "value": "47% (7/15)**"},
      {"measurement": "Infected, treated % Mean wt. change", "setting": "[7]; [14]", "value": -1.4, "unit": "g"},
      {"measurement": "Infected, treated % survival (alive/total)", "setting": "[7]; [15]", "value": "47% (7/15)**"},
      {"measurement": "Infected, treated % Mean wt. change", "setting": "[7]; [15]", "value": -1.0, "unit": "g"},
      {"measurement": "mean-day-to-death", "setting": "[7]; Barrogen-treated vs placebo-treated mice (FIG. 30)", "value": "significant increase"},
      {"measurement": "tolerability in toxicity control mice", "setting": "[8]", "value": "well tolerated"},
      {"measurement": "tolerability in toxicity controls", "setting": "[9]", "value": "well tolerated"},
      {"measurement": "tolerability in toxicity control animals", "setting": "[3]", "value": "well tolerated"},
      {"measurement": "tolerability in toxicity controls", "setting": "[10]", "value": "well tolerated"}
    ]}
  ]
}
